Laboratory results from patent US20210017240A1 (ACCESS BUSINESS GROUP INTERNATIONAL, published 2021).

T1: human recombinant renin (human, UniProt P00797 67-406, limits assumed)
T1 sequence (looked up): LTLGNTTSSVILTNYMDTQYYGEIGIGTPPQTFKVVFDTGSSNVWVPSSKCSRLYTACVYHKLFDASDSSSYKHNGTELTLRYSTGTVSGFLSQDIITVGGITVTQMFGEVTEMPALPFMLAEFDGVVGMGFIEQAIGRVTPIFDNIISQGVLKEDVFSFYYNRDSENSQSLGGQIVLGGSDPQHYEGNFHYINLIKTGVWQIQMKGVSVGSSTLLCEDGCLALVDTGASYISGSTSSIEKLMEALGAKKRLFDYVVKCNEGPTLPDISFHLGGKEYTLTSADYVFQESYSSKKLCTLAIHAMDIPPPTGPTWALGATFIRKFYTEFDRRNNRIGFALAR


Tests used:
human recombinant renin = target: T1, human recombinant renin; test: cell-based or functional assay
[1] = target: angiotensin converting enzyme (ACE); test: cell-based or functional assay

Row | % Inhibition of renin activity at 1 mg/mL peptide (fluorometric Renin Inhibitor Screening Assay Kit) (human recombinant renin) | IC50 of in vitro ACE activity inhibition (FAPGG substrate, absorbance at 345 nM) [1] | Binder
1 | -46.4% | 21 µg/mL | MVWGP [isolated peptide 3, MVWGP (Met-Val-Trp-Gly-Pro)]
2 | -40.5% | 250 µg/mL | YFVP [isolated peptide 1, YFVP (Tyr-Phe-Val-Pro)]
3 | 107% | 550 µg/mL | TGSYTEGWS [isolated peptide 4, TGSYTEGWS (Thr-Gly-Ser-Tyr-Thr-Glu-Gly-Trp-Ser)]
4 | -54.5% | 510 µg/mL | SGRDP [isolated peptide 2, SGRDP (Ser-Gly-Arg-Asp-Pro)]
